Reference: PMC5426288, “Crystal structure of thermostable alkylsulfatase SdsAP from Pseudomonas sp. S9” (Bioscience Reports, 2017)

Key:
[1] = substrate: CCCCCCCCCCCCOS(=O)(=O)O; experiment: isothermal titration calorimetry, enzyme rate assay; type: biochemical, Pseudomonas sp.; settings: 25 °C, 25 mM Tris/HCl pH 8.0, 200 mM NaCl, 25 nM enzyme
[2] = target: the molecule itself; experiment: crystal structure; SdsAP at 27.5 mg/ml, sitting drop vapor diffusion at 293 K, 0.1 M sodium acetate pH 4.5, 0.05 M magnesium acetate, 20% PEG 4000; two monomers in the asymmetric unit; 1.76 Å

B1: alkylsulfatase SdsAP from Pseudomonas sp. S9 (enzyme, UniProt F2WP51 42-674, looked up)
chain: AETAKPATDATKAANDALLKELPFDDKTSFDLAHKGFIAPLPAEPIKGEKGNMIWDPSKYGFIKEGEAAPDTTNPSLWRQSQLINISGLFEVTDGIYQVRNYDLSNMTIVEGKDGITIFDPLISQETAKAALDLYYKHRPKKPVVAVIYTHSHVDHYGGVRGVVDEADVKAGKVKIYAPLGFLEHAVAENVMAGTAMSRRASYMYGNLLPPDAKGQLGAGLGTTTSAGTVTLIPPTDIIKETGETHVIDGLTYEFMYAPGSEAPAEMLYYIKEKKALNAAEDSTHTLHNTYSLRGAKIRDPLAWSKYLNEALKLWGDDVQVMYAMHHWPVWGNKEVREQLSLQRDMYRYINDETLRLANKGYTMTEIAEQVKLPKKIATKFSNRGYYGSLNHNVKATYVLYLGWFIGNPATLWELPPADKAKRYVEMMGGADAVLKKAKEYYDKGDFRWVAEVVNHVVFAEPNNQAAKNMQADALEQLGYQAESGPWRNFYLTGAQELRNGVQQLPTPDTASPDTVKAMDLDLFFDFLAMRLKGPDVADKHITLNLDFTDLKQKYTLEMVNGVLNHTEGMQAKNADATVTLTRETLNNVMLKQTTLKDAESSGDIKIEGDKGKLEELMSYMDNFDFWFNIVTP
notes: SdsAP, type III alkylsulfatase of Pseudomonas sp; S9 (F2WP51); N-terminal signal peptide of 41 amino acids truncated; domains in the structure: 42-401 metallo-beta-lactamase like, 402-543 dimerization, 544-674 SCP-2-like; that this removes the His tag is inferred; source: E. coli BL21 (DE3), purified (IMAC, thrombin digestion, Mono Q, Superdex 200)
[1]
  Km: 74.2 ± 10 µM
  kcat: 4.88 ± 0.17 s⁻¹
[2]
  stoichiometry N: 2
